B1: MOD-5014 (FVIIa-CTP3, activated Factor VII-CTP-CTP-CTP) (enzyme)
light: ANAFLEELRPGSLERECKEEQCSFEEAREIFKDAERTKLFWISYSDGDQCASSPCQNGGSCKDQLQSYICFCLPAFEGRNCETHKDDQLICVNENGGCEQYCSDHTGTKRSCRCHEGYSLLADGVSCTPTVEYPCGKIPILEKRNASKPQGR
heavy: IVGGKVCPKGECPWQVLLLVNGAQLCGGTLINTIWVVSAAHCFDKIKNWRNLIAVLGEHDLSEHDGDEQSRRVAQVIIPSTYVPGTTNHDIALLRLHQPVVLTDHVVPLCLPERTFSERTLAFVRFSLVSGWGQLLDRGATALELMVLNVPRLMTQDCLQQSRKVGDSPNITEYMFCAGYSDGSKDSCKGDSGGPHATHYRGTWYLTGIVSWGQGCATVGHFGVYTRVSQYIEWLQKLMRSEPRPGVLLRAPFPSSSSKAPPPSLPSPSRLPGPSDTPILPQSSSSKAPPPSLPSPSRLPGPSDTPILPQSSSSKAPPPSLPSPSRLPGPSDTPILPQ
modifications: O-glycosylated CTPs, positions not given; gamma-carboxylated (Gla) residues, positions not given
B2: Tissue factor (TF) (receptor, UniProt P13726 33-295, looked up)
chain: SGTTNTVAAYNLTWKSTNFKTILEWEPKPVNQVYTVQISTKSGDWKSKCFYTTDTECDLTDEIVKDVKQTYLARVFSYPAGNVESTGSAGEPLYENSPEFTPYLETNLGQPTIQSFEQVGTKVNVTVEDERTLVRRNNTFLSLRDVFGKDLIYTLYYWKSSSSGKKTAKTNTNEFLIDVDKGENYCFSVQAVIPSRTVNRKSTDSPVECMGQEKGEFREIFYIIGAVVFVVIILVIILAISLHKCRKAGVGQSWKENSPLNVS

Experiments:
[1] = target: B2; assay: cell-based or functional assay
[2] = target: B1; assay: TF binding read out by the rate of FX activation (FVIIa 0-2 nM, TF 10 pM, FX 135 nM, Pefachrome FXa), fitted with a Hill equation
Excerpt: Cleavage of synthetic substrate is converted to FXa concentration by a standard curve.

| Binder | EC50 (read off the curve) (rate of FXa generation against FVIIa concentration at fixed TF) [1] | Kd [2] |
| --- | --- | --- |
| B1 | ~8 pM |  |
| B2 |  | 3 pM |

Source: patent US20180360932A1 (OPKO BIOLOGICS, published 2018)
